Reference: the DeepSol protein solubility set

Experiment: soluble on expression in E. coli; label from the status in PepcDB or PDB records

Sequence | soluble on expression in E. coli
MIIHFTLNGAPQELTVNPGENVQKLLFNMGMHSVRNSDDGFGFAGSDAIIFNGNIVNASLLIAAQLEKADIRTAESLGKWNELSLVQQAMVDVGVVQSGYNDPAAALIITDLLDRIAAPTREEIDDALSGLFSRDAGWQQYYQVIELAVARKNNPQATIDIAPTFRDDLEVIGKHYPKTDAAKMVQAKPCYVEDRVTADACVIKMLRSPHAHALITHLDVSKAEALPGVVHVITHLNCPDIYYTPGGQSAPEPSPLDRRMFGKKMRHVGDRVAAVVAESEEIALEALKLIDVEYEVLKPVMSIDEAMAEDAPVVHDEPVVYVAGAPDTLEDDNSHAAQRGEHMIINFPIGSRPRKNIAASIHGHIGDMDKGFADADVIIERTYNSTQAQQCPTETHICFTRMDGDRLVIHASTQVPWHLRRQVARLVGMKQHKVHVIKERVGGGFGSKQDILLEEVCAWATCVTGRPVLFRYTREEEFIANTSRHVAKVTVKLGAKKDGRLTAVKMDFRANTGPYGNHSLTVPCNGPALSLPLYPCDNVDFQVTTYYSNICPNGAYQGYGAPKGNFAITMALAELAEQLQIDQLEIIERNRVHEGQELKILGAIGEGKAPTSVPSAASCALEEILRQGREMIQWSSPKPQNGDWHIGRGVAIIMQKSGIPDIDQANCMIKLESDGTFIVHSGGADIGTGLDTVVTKLAAEVLHCPPQDVHVISGDTDHALFDKGAYASSGTCFSGNAARLAAENLREKILFHGAQMLGEPVADVQLATPGVVRGKKGEVSFGDIAHKGETGTGFGSLVGTGSYITPDFAFPYGANFAEVAVNTRTGEIRLDKFYALLDCGTPVNPELALGQIYGATLRAIGHSMSEEIIYDAEGHPLTRDLRSYGAPKIGDIPRDFRAVLVPSDDKVGPFGAKSISEIGVNGAAPAIATAIHDACGIWLREWHFTPEKILTALEKI | soluble
MIIIGIDEAGRGPVLGPMVVCAFAIEKEREEELKKLGVKDSKELTKNKRAYLKKLLENLGYVEKRILEAEEINQLMNSINLNDIEINAFSKVAKNLIEKLNIRDDEIEIYIDACSTNTKKFEDSFKDKIEDIIKERNLNIKIIAEHKADAKYPVVSAASIIAKAERDEIIDYYKKIYGDIGSGYPSDPKTIKFLEDYFKKHKKLPDIARTHWKTCKRILDKSKQTKLIIE | soluble
MIIREQRVEKFNAGKAVYQSVSKTESLARTAKDRKICANLEEAIRRSGLKDGMTVSFHHAFRAGDCVVNMVMNKIAEMGFKNLTLASSSLIDSHYPLIEHIKNGVVTKIYSSGLRGQLADEISRGLLAEPVNIHSHGGRVHLIKAGELKIDVAFLGVPCCDKFGNANGFSGKSKCGSLGYARIDAEYADKVVLLTEQFDEYPLNPISIGQDNVDLIVQVDEVGDPEKIGGGATRMTTNPRELLIARKCAQVIFASGYFKDGFSLQTGTGGASLAVTRFLEDKMRREQITAGFALGGITSSIVALHEAGLIKKLIDVQSFDKDAAESLARNPNHIEVSANQYANYSSKGPSVECLDIVVLSALEIDTQFNVNVLTGSDGVIRGASGGHSDTAASAQVAIIVAPLVRGRIPTVVEQVITCVTPGENIDILVTDHGVAVNPKRLDLVDKLTAAGLELFTIEQLCARAYSITGKSKEIEFKDKPVAVVRYRDGSVIDTVYQIKELEHHHHHH | soluble
MIITEQNMPEEKLQTLSLQVINGSELESGRAARCLFTQQGNVGHAPECHWSVQDRQQSIPAQAFTVILHDGTFCLRPQTAQLWLNQAKVTATSDLIQLRQGDEIQIGRLMVRVHLNRGDIPHYDEEMATPETIVTNRDMLTDTLLSTEGAPHYPGMTHRHQLADTVVNGFSADPLQALQSESLITTGDPLSGIAAVRPSAPLSDPASNGGINTPFMDLPPIYASPGDHNDDISAAEMAQRHLAVTPLLRGLGGSLTVSNSDDADDFLEEAGRTLQAAIKGLLDLQQQRNSLSDKHLRPLEDNPLRLNMDYATALDVMFAEGKSPVHLAAPAAVSESLRNVRHHEEANRAAIVESLRVLLDAFSPQNLLRRFVQYRRSHELRQPLDDAGAWQMYSHYYEELASDRQQGFEMLFNEVYAQVYDRVLREKQREPEA | soluble
MIITIARQCGCGGHEVARILANKLGMELFDKKKLLEEANQLGQAEEHSNFFNEVPINSLLYGIAMGFGNTKPMDKSLKLVKAITENKDAIIIGRCANIIYKDSKDVTSVYLFADKEFRIKYLMERDGISEKEAEKYIKEVDEKRTSFHKYCTDTVWGDAKEYQLCLDTGKIGFEKTAELIMNYINAKKES | not soluble
MIKCIYIVCALNDNTIYSTLHYMEYSIQRGEIYMKIIKRSGSEDIFDAAKIVAAIRKANDSVLDYEKLTADQIEEIASNVETACENMKRSPSVEEIQDMVENQLMNKRAFTVARNYITYRYKRAIVRKSNST | not soluble
MIKEFCAENLTLLPTLDAGQVSRVELCDNLAVGGTTPSYGVIKEACQLLHDKKISVATMIRPRGGDFVYNDLELKAMEEDILKAVEAGSDALVLGLLTTENQLDTDAIEQLLPATQGLPLVFHMAFDHIPTDHQHQALDQLIDYGFVRVLTHGSPEATPITDNVEQLKSLVTYANKRIEIMIGGGVTAENCQNLSQLTGTAIVHGTKIILEHHHHHH | soluble
MIKFYQYKNCTTCKKAAKFLDEYGVSYEPIDIVQHTPTINEFKTIIANTGVEINKLFNTHGAKYRELDLKNKLQTLSDDEKLELLSSDGMLVKRPLAVMGDKITLGFKEDQYKETW | soluble
MIKIAPSILSADFSKLGEEIKDVEKGGADYIHVDVMDGHFVPNITIGPLIVEAIRPITSLPLDVHLMIENPDNYIPTFAKAGADIITVHVEACPHLHRTIQLIKSHGIKAGVVLNPHTPVSVIEHVLEDIDMVLLMTVNPGFGGQKFIHSVLPKIKQVAEMVKERNLEVEIEVDGGVNAETARLCVEAGANVLVAGSAVYNQKDRGEAIRVIRG | soluble
MIKISTRFDAGSVVVKDLTDPSNIRLALRPDNASDFAQWFYFRLQGAAYQNCIMHFENAAEAAYPKGWEGYQACASYDRRNWFRVPTSYENGVLTVNHTPLSNSVYYAYFEPYSEEQHLNLLGDAQGSGLCRIDDLGSTVQGRDINLLTIGNQVESDLKIWITARQHPGETMAEWFIEGLLGRLLDPQDPTARALLDRATFYIVPNMNPDGSALGNLRTNAAGANLNREWENPTVEKSPEVFFVREKMLETGVDLFLDIHGDEGLPFVFVAGTEGVPNYNPRIAALEAQFKNALLNASPDFQDEYGYEKDAPGEANMTLATNWVGNRFNCLAYTLEMPFKDNANLPDDDFGWNGQRSLRLGEAALSAILNVIGDLR | not soluble
MIKISYSPYTLKPVQSLNAATAATAREGVLLKVEWNDGLYGFADLHPWPELGDLSLEEQLSDLRMGRMTTQIEQSIWLARRDALLRKEKKHVFDGGEKIKNNYLLSHFQDLKPGFLDGLKNEGYNTVKVKMGRDLQKEADMLTHIAASGMRMRLDFNALGSWQTFEKFMVNLPLTVRPLIEYVEDPFPFDFHAWGEARKLAKIALDNQYDKVPWGKIASAPFDVIVIKPAKTDVDKAVAQCQKWNLKLAVTSYMDHPVGVVHAVGVAMELKDKYGDMILESGCLTHRLYQMDSFAAELSTQGPYLLKNKGTGVGFDKLLEALTWYQLKVR | soluble
MIKLKTPNSMEIAEQPAVITYVPELNAFRGKFLGLSGYCDFVSDSIQGLQKEGELSLREYLEDCKAAGIEPYARTEKIKTFTLRYPESLSERLNNAAAQQQVSVNTYIIETLNERLNHL | not soluble
MIKLVRIDYRLLHGQVVFAWTRALDIDHIIVANANAAGDAFVSMSLSLAKPAGVSLDIITVEQAAEKLASGKLDHKKVMVVLGNTAETLAFVEKVPGISVINYGGIAQKEGAQQFGKAIYLTEQEIADSQALKAKGIRLEMRQVPAHSAELLNDKL | not soluble
MIKMGRSEMKIASAELRELMKAVSEGHYETVNTILDKDPELVNQYAPPTYDSPLARVLNKKHIDYKMLDILVKHHVDFDYPINYHKETPIELACKNQDLQLFKYLVQHNAPISEQAPHFLLVNSTNIKYLTEDKIKNTCEIIKLMGGLEAVSSKCDAEGNRFGEQARKSQLINRFGGIVKYDYMQLLQSVYPIVDREVDAPTIHGSTEVLTNLLNKIRGQFSSKETYDQQNLKDSISLFFMTGGEIPPSRKVPESRFEEAGIDTPKNAL | not soluble
MIKSALLVLEDGTQFHGRAIGATGSAVGEVVFNTSMTGYQEILTDPSYSRQIVTLTYPHIGNVGTNDADEESSQVHAQGLVIRDLPLIASNFRNTEDLSSYLKRHNIVAIADIDTRKLTRLLREKGAQNGCIIAGDNPDAALALEKARAFPGLNGMDLAKEVTTAEAYSWTQGSWTLTGGLPEAKKEDELPFHVVAYDFGAKRNILRMLVDRGCRLTIVPAQTSAEDVLKMNPDGIFLSNGPGDPAPDDYAITAIQKFLETDIPVFGICLGHQLLALASGAKTVKMKFGHHGGNHPVKDVEKNVVMITAQNHGFAVDEATLPANLRVTHKSLFDGTLQGIHRTDKPAFSFQGHPEASPGPHDAAPLFDHFIELIEQYRKTAK | soluble
MIKSSSKIGLAFFVRPQFDVDLAKNFFNKVQDSLKEAGIATQVFELPVSTDAEALSLAESVNSHQDLHGLIVVQGTFCDASLILNLASNINLPIMIWATKEQPTGGRLSLNSFCGLNLGAHTLVNAGIKFKGVYGSPGSPAVIKKVTSFARAAGAVKWLKGKRIGLFGHRPSGYYPSNFNEILLRKQFGITVEYLSLSEVFSLAQKMEIKDIQPFINTLVGVEGLEMVSTSKSVQAYLALKELIAQKALDAVAVECWPEFMAGFGGAVCYALSRLNDEGIVAACEADVNGAVTMLLGSYLSSQANFIADLVGAEEEQNQLIFWHCGNGPLSLAAPGTNPVAGVHPNRKTPLAMYFPLKGGPVTVSRLSSDHNGNLRLFLGSGTGIETDLLYSGNSLPIQISGSVEETLDTILCEGIEHHYIVTYGDLTSEFREIAELLGLRMITF | not soluble
MIKSYKIRGTSLTVNRSDSYPDACNWTADSFGMLFYDPEYDLSTESLSITLDAGNDWVPEGGLVYESLPVKVTYENPEMMDYGTDWFNQGYSALGWNGEEYAYLGTDRGIVNILLEEDEKILYPNEEYDLKEGYTLKVTDLASDKACLTLSRNKLPVYSSIISPGKSADLGTHTFLYKKELNGVEVPLFSVYVDSVIQGDELSAVNLKHLLHFSDSPLELNYGKEYGELTIVETYPKLRLENKHVVWSGSDINVTEDIWIGRFEKKTAGNLFVLEHHHHHH | soluble
MIKTVVGSYPVVKGKPDSIPDKIKKFFGKYDKYEYSIKKALDDQLNVGIDILSDGQVRGDMVEIFVSNMYGFEGRRVVNRVEFVKPITLNDIKYSLKYISKKDPEKGVKGIITGACTLASSIRVENYYSDNKDENLIYDLAGALNKEALSIQNHVKMIQFDEPILSTGLYDLEVAKKAMDIITSGINVPVAMHVCGDVSKIFYKLNEFNVDILDHEFASCRKNLEILNEITKKVGFGCINTKLKSVDSVDEVKALISEGIEILKNNSKFEGSINDSVIIDPDCGMRLLPVDVAYSKLNNMVTAANEIEKDLILEHHHHHH | not soluble
MILITLLKDGVGEKMRIVFDLGGSVVMPKEGAKAEKIMEYANIFKKIKDEGHEVAIVVGGGKTAREYIEIGRELGASESFCDELGIMATRMNAMILITALGDYSIKKVPTSFEEAELILNLGKIPVMGGTHPGHTTDAVAASLAEFINADLLVIGTNVDGVYDKDPNKYEDAKKFDKMSAKELVDLAISSSLKAGSSSVVDLLAAKIIERAKLKVAVVKGTPEELLNVSKGIINGTIIEG | soluble
